Measurements taken from patent US9731031B2, “Conjugate comprising oxyntomodulin and an immunoglobulin fragment, and use thereof” (Hanmi Science Co., Ltd., dated 2017).
Where no end group is shown, it is not given here. [ ]: non-standard residue; d: D form. The star is where a group is joined. Acetyl(2-(4-imidazolyl)) = O=C(Cc1c[nH]cn1)*; Aib = CC(C)(N)C(=O)O

What was measured:
human glucagon receptor = human glucagon receptor (human, UniProt P47871); experiment: cell-based or functional assay
human GLP-1 receptor = human GLP-1 receptor (human, UniProt P43220); experiment: cell-based or functional assay

B1: oxyntomodulin derivative of SEQ ID NO. 17 (peptide)
peptide: HSQGTFTSDYSRYLDEEAVRLFIEWIRNTKRNRNNIA
modifications: not fully specified (residue 1, N-terminus); also: N-terminal CA (4-imidazoacetyl), whether it replaces His1 not given here
EC50 (nM), cAMP (human glucagon receptor): > 1000 nM

B2: oxyntomodulin derivative of SEQ ID NO. 3 (peptide)
peptide: [Acetyl(2-(4-imidazolyl))]SQGTFTSDYSKYLDERRAQDFVAWLKNTGPSSGAPPPS
modifications: also: N-terminal CA (4-imidazoacetyl), whether it replaces His1 not given here
EC50 (nM), cAMP (human GLP-1 receptor): > 1000 nM

B3: oxyntomodulin derivative of SEQ ID NO. 32 (peptide)
peptide: [Acetyl(2-(4-imidazolyl))][Aib]QGTFTSDYSKYLDEKRAKEFVQWLMNTC
modifications: also: ring between residues marked, places not visible
EC50 (nM), cAMP (human GLP-1 receptor): 14.2 nM
EC50 (nM), cAMP (human glucagon receptor): 17.3 nM

B4: oxyntomodulin derivative of SEQ ID NO. 24 (peptide)
peptide: H[Aib]QGTFTSDYSKYLDEKRAKEFVQWLMNTC
modifications: also: ring between residues marked, places not visible
EC50 (nM), cAMP (human GLP-1 receptor): 1.43 nM

B5: oxyntomodulin derivative of SEQ ID NO. 25 (peptide)
peptide: H[Aib]QGTFTSDYSKYLDEKRAKEFVQWLMNTC
modifications: also: ring between residues marked, places not visible
EC50 (nM), cAMP (human GLP-1 receptor): 1.9 nM

B6: oxyntomodulin derivative of SEQ ID NO. 34 (peptide)
peptide: Y[Aib]QGTFTSDYSKYLDEKRAKEFVQWLMNTC
modifications: also: ring marking not visible
EC50 (nM), cAMP (human GLP-1 receptor): 12.5 nM
EC50 (nM), cAMP (human glucagon receptor): 1 nM

B7: oxyntomodulin derivative of SEQ ID NO. 11 (peptide)
peptide: HGEGTFTSDLSRQMEEEAVRLFIEWAAHSQGTFTSDYSRYLDK
modifications: not fully specified (residue 1, N-terminus); also: N-terminal CA (4-imidazoacetyl), whether it replaces His1 not given here
EC50 (nM), cAMP (human GLP-1 receptor): > 1000 nM
EC50 (nM), cAMP (human glucagon receptor): > 1000 nM

B8: oxyntomodulin derivative of SEQ ID NO. 28 (peptide)
peptide: H[Aib]QGTFTSDYSKYLDEKRAKEFVQWLMNT
modifications: also: ring between residues marked, places not visible
EC50 (nM), cAMP (human glucagon receptor): 0.3 nM

B9: oxyntomodulin derivative of SEQ ID NO. 8 (peptide)
peptide: [Acetyl(2-(4-imidazolyl))]SQGTFTSDLSRQLEEEAVRLFIEWLMNK
modifications: also: N-terminal CA (4-imidazoacetyl), whether it replaces His1 not given here
EC50 (nM), cAMP (human glucagon receptor): > 1000 nM

B10: oxyntomodulin derivative of SEQ ID NO. 6 (peptide)
peptide: HGEGTFTSDLSRQMEEEAVRLFIEWAAHSQGTFTSDYSKYLD
modifications: not fully specified (residue 1, N-terminus); also: N-terminal CA (4-imidazoacetyl), whether it replaces His1 not given here
EC50 (nM), cAMP (human glucagon receptor): > 1000 nM

B11: oxyntomodulin derivative of SEQ ID NO. 33 (peptide)
peptide: H[Aib]QGTFTSDYAKYLDEKRAKEFVQWLMNTC
modifications: also: ring marking not visible
EC50 (nM), cAMP (human GLP-1 receptor): 2.2 nM
EC50 (nM), cAMP (human glucagon receptor): 80.2 nM

B12: oxyntomodulin derivative of SEQ ID NO. 18 (peptide)
peptide: [Acetyl(2-(4-imidazolyl))]SQGTFTSDYSRYLDEEAVRLFIEWIRNGGPSSGAPPPSK
modifications: also: N-terminal CA (4-imidazoacetyl), whether it replaces His1 not given here
EC50 (nM), cAMP (human glucagon receptor): > 1000 nM

B13: oxyntomodulin derivative of SEQ ID NO. 13 (peptide)
peptide: HSQGTFTSDYSRYLDEEAVELFIEWLMNTK
EC50 (nM), cAMP (human GLP-1 receptor): > 1000 nM
EC50 (nM), cAMP (human glucagon receptor): > 1000 nM

B14: oxyntomodulin derivative of SEQ ID NO. 23 (peptide)
peptide: H[Aib]QGTFTSDYSKYLDEKRAKEFVCWLMNT
modifications: also: ring between residues marked, places not visible
EC50 (nM), cAMP (human GLP-1 receptor): 2.46 nM
EC50 (nM), cAMP (human glucagon receptor): 5.8 nM
